Test results from publication doi:10.1101/2023.06.21.545551 (2023).

Target: MYC(303–351) (human)
Experiment: NMR; printed fit value 1205 uM in parentheses

B1: MYC(1–88) (domain or fragment)
chain: MPLNVSFTNRNYDLDYDSVQPYFYCDEEENFYQQQQQSELQPPAPSEDIWKKFELLPTPPLSPSRRSGLCSPSYVAVTPFSLRGDNDG
A Kd greater than 1000 µM was found for B1 in this work.
